Results: patent US6156511A, “Peptide library and screening method” (Affymax Technologies N.V., priority 1998, dated 2000)
Read-outs that look alike come from different tables or passages of the source.

Columns and labels:
DNA = details: cited from earlier work
[1] = target: headpiece dimer A4.5 (mutant) Q18R (second headpiece) (Escherichia coli) (UniProt P03023); details: panning of protein-plasmid complex
[2] = target: Lac repressor (LacI)-peptide fusion, full length (Escherichia coli) (UniProt P03023); details: plasmid panning on D32.39 antibody; deletion of lacOs, near background
[3] = target: headpiece dimer B4.5 (mutant) Q18R (second headpiece) (Escherichia coli) (UniProt P03023); details: panning Exp. 3; lacOs plasmid complex stability, site of binding not established
[4] = target: Lac repressor (LacI)-peptide fusion, full length (Escherichia coli, UniProt P03023 P03023:1-360); test: panning Exp. 3, partial (B) induction; details: chain copies: 4 (stated tetramer)
[5] = tested on: plasmid pCMG14 fragments / lacOs-containing fragments; test: Protein-DNA binding experiments with plasmid fragments (gel shift, 32P-labeled fragments); details: over-expressed polypeptides; with unlabelled herring DNA competitor
Description: To determine the plasmid binding site(s) of headpiece dimer mutant A4.5 and the non-mutant B7, several protein-DNA binding experiments were performed.

wild-type lacO = details: single wild-type lacO; cited from earlier work
lacZYA = test: Repression of chromosomal lacZYA, direct β-galactosidase assay in strain ARI 20; type: cell-based, E. coli
Text: One can estimate the lacI expression level necessary to fill the available binding sites in a typical plasmid p.MC5 derivative by observing the behavior of strain ARI 20 (lacI^- lacZYA^+) transformed with pMC3 or pMC5 (encoding only the linker peptide GADGA [SEQ. ID NO.:65]). Because the lacO sites in plasmids pMC3 and pMC5 have higher affinity than those in the lacZYA operon, the available repressor should fill the plasmid sites first. Substantial repression of lacZYA should be observed only if there is an excess of repressor beyond the amount needed to fill the plasmid sites. As shown by color level on X-gal indicator plates and direct assays of β-galactosidase (see Miller, Experiments in Molecular Genetics (Cold Spring Harbor Laboratory, Cold Spring Harbor, N.Y. (1972)), incorporated herein by reference), the amount of repressor produced by pMC5 is sufficient to fill the lacO sites and repress greater than 200 fold lacZYA in ARI 20 host cells during growth in normal LB medium (2.4 units compared to 500 units from ARI 20 transformed with vector pBAD18, which has no lacI). The repressor encoded by pMC3 was partially inactivated by the addition of the dynorphin B tail, allowing about 10 fold higher expression of lacZYA (37 units). […]

arc repressor: arc repressor of phage P22 (MKGMSKMPQFNLRWPREVLDLVRKVAEENGRSVNSEIYQRVMESFKKEGRIGA; UniProt P03050 1-53, looked up)
dissociation half-life (DNA): 1.33 h

plasmid lacking lacOs
binding signal (fold enrichment) ([1]; lacOs not required): 44
binding signal (fold drop in enrichment) [2]: 446

AATTGTGAGCGCTCACAATT (double strand)
binding signal (fold enrichment) ([1]; plasmid with lacOs): 43
activity (fold enrichment) [3]: 850

B1: lacOs (symmetric lac operator) on plasmid or plasmid fragment (dsDNA)
DNA 1: AATTGTGAGCGCTCACAATT
DNA 2: AATTGTGAGCGCTCACAATT
activity [4]: 155 fold enrichment

B2: lac repressor: 37 kDa product of the E. coli lacI gene, binds lacO (protein, UniProt P03023 1-360, looked up)
Lactose operon repressor: MKPVTLYDVAEYAGVSYQTVSRVVNQASHVSAKTREKVEAAMAELNYIPNRVAQQLAGKQSLLIGVATSSLALHAPSQIVAAIKSRADQLGASVVVSMVERSGVEACKAAVHNLLAQRVSGLIINYPLDDQDAIAVEAACTNVPALFLDVSDQTPINSIIFSHEDGTRLGVEHLVALGHQQIALLAGPLSSVSARLRLAGWHKYLTRNQIQPIAEREGDWSAMSGFQQTMQMLNEGIVPTAMLVANDQMALGAMRAITESGLRVGADISVVGYDDTEDSSCYIPPLTTIKQDFRLLGQTSVDRLLQLSQGQAVKGNQLLPVSLVKRKTTLAPNTQTASPRALADSLMQLARQVSRLESGQ
binding to 32P-labeled plasmid fragments [5]: specific binding of lacI to lacOs -containing fragments
association rate constant (wild-type lacO): 7e+09 M⁻¹ s⁻¹
half-life for the lac repressor-lacO complex (wild-type lacO): about 30 min

B3: pMC5: library plasmid encoding lac repressor with only the linker peptide GADGA (protein, UniProt P03023 1-360, looked up)
Lactose operon repressor: MKPVTLYDVAEYAGVSYQTVSRVVNQASHVSAKTREKVEAAMAELNYIPNRVAQQLAGKQSLLIGVATSSLALHAPSQIVAAIKSRADQLGASVVVSMVERSGVEACKAAVHNLLAQRVSGLIINYPLDDQDAIAVEAACTNVPALFLDVSDQTPINSIIFSHEDGTRLGVEHLVALGHQQIALLAGPLSSVSARLRLAGWHKYLTRNQIQPIAEREGDWSAMSGFQQTMQMLNEGIVPTAMLVANDQMALGAMRAITESGLRVGADISVVGYDDTEDSSCYIPPLTTIKQDFRLLGQTSVDRLLQLSQGQAVKGNQLLPVSLVKRKTTLAPNTQTASPRALADSLMQLARQVSRLESGQ
modifications: C-terminal GADGA linker peptide
repression of lacZYA (lacZYA; ARI 20, LB medium, compared with vector pBAD18 (no lacI)): greater than 200 fold
β-galactosidase (lacZYA; ARI 20 host cells, normal LB medium): 2.4 units
